Measured values from US7732133B2, “Screening methods for biologically active ligands” (Chugai Seiyaku Kabushiki Kaisha, priority 2000, dated 2010).

What was measured:
[1] = target: T1, chimeric IL-10 receptor (human IL-10Rα and IL-10Rβ / mouse G-CSF receptor) in Ba/F3 cell line 10G (Homo sapiens, UniProt Q08334+Q13651); experiment: Growth response of chimeric IL-10 receptor-expressing Ba/F3 cell line 10G (WST-8); type: cell-based; settings: 72 hours culture, WST-8 absorbance
T1 construct: from the 1st to the 235th amino acid residue; from the 1st to the 220th amino acid residues; expressed in transfected cells; host or cells: mouse Ba/F3 cells co-transfected with pCV-cIL10Rα and pCV-cIL10Rβ, clone 10G#10 = 10G
T1 sequence (Q13651 22-235): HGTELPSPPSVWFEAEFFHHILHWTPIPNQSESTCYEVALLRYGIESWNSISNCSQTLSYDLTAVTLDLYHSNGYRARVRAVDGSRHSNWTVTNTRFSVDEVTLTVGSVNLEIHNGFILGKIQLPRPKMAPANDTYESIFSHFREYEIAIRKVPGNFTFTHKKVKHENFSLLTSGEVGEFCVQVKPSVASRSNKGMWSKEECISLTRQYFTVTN
T1 sequence (Q08334 20-220): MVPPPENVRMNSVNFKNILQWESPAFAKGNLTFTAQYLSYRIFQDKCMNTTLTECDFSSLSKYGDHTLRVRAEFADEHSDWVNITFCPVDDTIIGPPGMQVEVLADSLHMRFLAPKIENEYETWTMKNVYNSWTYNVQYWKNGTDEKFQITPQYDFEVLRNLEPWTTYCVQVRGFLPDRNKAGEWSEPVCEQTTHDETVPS
T1 sequence (P40223 627-837 partner limits assumed): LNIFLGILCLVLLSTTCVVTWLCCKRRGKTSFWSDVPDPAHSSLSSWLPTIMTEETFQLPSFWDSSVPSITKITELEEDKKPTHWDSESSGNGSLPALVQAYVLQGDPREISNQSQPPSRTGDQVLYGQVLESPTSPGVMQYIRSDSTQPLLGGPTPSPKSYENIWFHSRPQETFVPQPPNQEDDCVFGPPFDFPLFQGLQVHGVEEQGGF
Text: Chimeric receptor cDNAs were constructed by linking cDNA fragments encoding the α chain (IL-10Rα) (from the 1st to the 235th amino acid residue; Liu, Y. et al. (1994) J. Immunol. 152, 1821-1829) and the hIL-10R subunit (CRFB4; IL-10Rβ) extracellular domain (from the 1st to the 220th amino acid residues; Lutfalla, G. et al. (1993) Genomics 16, 366-373) of human IL-10 receptor with the transmembrane and intracellular domains (from the 602nd to the 813th amino acid residues; Fukunaga, R. et al. (1990) Cell 61, 341-350) of mouse G-CSF receptor, respectively. […]
The cells were washed twice with Media A, and were suspended in Media A to give a cell density of 5×10^4 cells/mL. […] After the culture, 10 μL/well WST-8 reagent (Cell Count Reagent SF; Nacalai Tesque) was added, and pre-reaction absorbance at a measurement wavelength of 450 nm and a control wavelength of 655 nm was measured using microplate reader (Model 3550, Bio Rad). The plate was incubated for two hours in a CO2 incubator (CO2 concentration, 5%), and post-reaction absorbance was measured as above. […]

[2] = target: T2, chimeric TPO receptor (human TPO receptor extracellular domain / mouse G-CSF receptor) in Ba/F3 cell line TPG (Homo sapiens, UniProt P40238); experiment: Growth response of chimeric TPO receptor-expressing Ba/F3 cell line TPG (WST-8); type: cell-based; settings: 72 hours culture, WST-8 absorbance
T2 construct: from the 1st to the 491st amino acid residues; expressed in transfected cells; host or cells: mouse Ba/F3 cells, clone TPG#219 = TPG
T2 sequence (P40238 26-491): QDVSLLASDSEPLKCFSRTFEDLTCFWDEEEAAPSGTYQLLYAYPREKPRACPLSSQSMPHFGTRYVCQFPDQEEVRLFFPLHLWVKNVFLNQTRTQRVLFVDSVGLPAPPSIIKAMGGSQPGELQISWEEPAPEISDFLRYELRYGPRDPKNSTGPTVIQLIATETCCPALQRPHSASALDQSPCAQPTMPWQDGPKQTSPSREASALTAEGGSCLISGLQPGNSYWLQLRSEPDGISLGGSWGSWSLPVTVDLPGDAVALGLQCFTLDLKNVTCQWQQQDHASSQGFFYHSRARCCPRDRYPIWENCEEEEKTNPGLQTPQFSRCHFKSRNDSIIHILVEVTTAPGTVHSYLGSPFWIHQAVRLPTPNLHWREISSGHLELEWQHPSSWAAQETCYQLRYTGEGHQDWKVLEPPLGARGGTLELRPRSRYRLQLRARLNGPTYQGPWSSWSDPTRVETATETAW
Text: A chimeric receptor cDNA was constructed by linking cDNA fragments encoding the extracellular domain (from the 1st to the 491st amino acid residues; Vigon, I. et al. (1992) Proc. Natl. Acad. Sci. USA 89, 5640-5644) of human TPO receptor, and the transmembrane and intracellular domains (from the 602nd to the 813th amino acid residues; Fukunaga, R. et al. (1990) Cell 61, 341-350) of mouse G-CSF receptor. The cDNA was inserted downstream of the EF1α promoter of the mammalian expression vector pCOS-G to construct chimeric receptor-expression vector TG/pCOS-G. TG/pCOS-G was linearized with Pvu I (Takara Shuzo), extracted with phenol and chloroform, and purified by ethanol precipitation.
The linearized expression gene vector was introduced into mouse Ba/F3 cells (purchased from RIKEN; Cell No.: RCB0805) using an electroporation apparatus (Gene Pulser: Bio Rad) The Ba/F3 cells were washed twice with Dulbecco's PBS (hereinafter referred to as PBS), and then were suspended in PBS to give a cell density of about 1×10^7 cells/mL. […]
The cells were washed twice with Media A, and were suspended in Media A to give a cell density of 5×10^4 cells/mL. […] The absorbance at a measurement wavelength of 450 nm and a control wavelength of 655 nm after the 2 hours incubation was measured using microplate reader (Model 3550, Bio Rad).

[3] = tested on: mixed culture of cell lines GFG, EPG, TPG and parental Ba/F3; experiment: Cytokine responses in mixed and individual cell cultures (Example 2); type: cell-based, mouse; settings: mixed culture of four cell lines (each 4×10^3 cells/well), similar in individual cultures, 72 hours, WST-8; listed as hTPO
Experimental: Mixed culture of the cell lines GFG, EPG, and TPG, which express human G-CSF, EPO, and TPO chimeric receptors, respectively, and their parental cell line Ba/F3 was conducted and their response to various cytokines was examined.
The cells were washed twice with RPMI1640 media containing 2% fetal bovine serum, and then were suspended in RPMI1640 containing 10% fetal bovine serum. The four cell lines were mixed by adjusting each of the cell lines to 4×10^4 cells/mL (16×10^4 cells/mL in total) for the mixed culture, and, for individual cultures, cells were prepared at 4×10^4 cells/mL. 100 μL each of the cells were independently seeded on a 96-well microtiter plate (flat bottom, Falcon). After adding 100 μL/well each of appropriately diluted cytokines, the cultures were cultured for 72 hours in a CO2 incubator (5% CO2 concentration). After the culture, 10 μL/well WST-8 reagent (Cell Count Reagent SF; Nacalai Tesque) was added, and pre-reaction absorbance at a measurement wavelength of 450 nm and a control wavelength of 655 nm was measured using a microplate reader (Model 3550, Bio Rad). The plate was incubated for two hours in a CO2 incubator (CO2 concentration, 5%), and post-reaction absorbance was measured as above. Data were graphed out taking the cytokine concentrations on the horizontal axis and the amount of changes in absorbance after 2-hour incubation on the vertical axis (FIGS. 18, 19, and 20).

Row | Substance | concentration at which an evident growth reaction was observed [1] | concentration at which an evident growth reaction was observed [2] | concentration where the response was observed to start [3]
1 | human IL-10: human interleukin 10 (Genzyme) | ≥ 0.5 ng/mL |  | 
2 | thrombopoietin [human TPO] |  | ≥ 100 pg/mL | 200 pg/mL
